The source of these data is US20220273789A1.

The target of this assay is human IgG (human). The experiment in a line: BLI Octet, construct on Ni-NTA sensor, hIgG in solution. On the technique in general: BLI is a label-free optical method that tracks binding on a fibre tip over time.
For “HSV2-gE_P318Y_gI (from UniProt P89475 21-416; P06764 21-256) (receptor)”, the equilibrium dissociation constant (Kd) is below 0.001 nM, the Response (nm) was found to be 0.0215 nm, the koff was below 1e-07 s⁻¹ and the on-rate (kon) was found to be 3480 M⁻¹ s⁻¹.

The substance “HSV2-gE_A248K F322A_gI (from UniProt P89475 21-416; P06764 21-256) (receptor)” came in with a Kd of 408 nM, a Response (nm) of 0.481 nm, a koff of 0.00397 s⁻¹ and an association rate constant (kon) of 9720 M⁻¹ s⁻¹.

With “HSV2-gE_R320H_gI (from UniProt P89475 21-416; P06764 21-256) (receptor)”, the Kd stood at 4750 nM, the Response (nm) was 0.247 nm, the off-rate constant (koff) is 0.00421 s⁻¹ and the kon is 886 M⁻¹ s⁻¹.

The substance “HSV2-gE_R320T_gI (from UniProt P89475 21-416; P06764 21-256) (receptor)” came in with a Kd of 606 nM, a Response (nm) of 0.37 nm, a koff of 0.0042 s⁻¹ and a kon of 6940 M⁻¹ s⁻¹.

In turn, “HSV2-gE_H245V_gI (from UniProt P89475 21-416; P06764 21-256) (receptor)” showed a dissociation constant Kd of 486 nM, a Response (nm) of 0.745 nm, a koff of 0.00573 s⁻¹ and a kon of 11800 M⁻¹ s⁻¹.

“HSV2-gE_F322T_gI (from UniProt P89475 21-416; P06764 21-256) (receptor)” came in with a Kd of 179 nM, a Response (nm) of 0.762 nm, a koff of 0.00269 s⁻¹ and a kon of 15000 M⁻¹ s⁻¹.

“HSV2-gE_F322A_gI (from UniProt P89475 21-416; P06764 21-256) (receptor)” returned a Kd of 167 nM, a Response (nm) of 0.86 nm, a koff of 0.00273 s⁻¹ and a kon of 16400 M⁻¹ s⁻¹.

Regarding “HSV2-gE_H245R_gI (from UniProt P89475 21-416; P06764 21-256) (receptor)”, the Kd was found to be 265 nM, the Response (nm) worked out at 0.842 nm, the koff worked out at 0.00416 s⁻¹ and the kon came out at 15700 M⁻¹ s⁻¹.

On to “HSV2-gE_A248K V340R_gI (from UniProt P89475 21-416; P06764 21-256) (receptor)”, for which the Kd was below 0.001 nM, the Response (nm) turned out to be 0.0449 nm, the koff is below 1e-07 s⁻¹ and the kon was 3040 M⁻¹ s⁻¹.

Consider “HSV2-gE_P317F_gI (from UniProt P89475 21-416; P06764 21-256) (receptor)”, for which the Kd came to 8770 nM, the Response (nm) amounted to 0.143 nm, the koff is 0.00166 s⁻¹ and the kon amounted to 189 M⁻¹ s⁻¹.

In turn, “HSV2-gE_R320N_gI (from UniProt P89475 21-416; P06764 21-256) (receptor)” came in with a dissociation constant (Kd) of 828 nM, a Response (nm) of 0.379 nm, an off-rate (koff) of 0.00493 s⁻¹ and a kon of 5950 M⁻¹ s⁻¹.

As for “HSV2-gE_R314Y_gI (from UniProt P89475 21-416; P06764 21-256) (receptor)”, the Kd is 600 nM, the Response (nm) was found to be 0.385 nm, the koff worked out at 0.00441 s⁻¹ and the on-rate (kon) turned out to be 7350 M⁻¹ s⁻¹.

“HSV2-gE_P317S_gI (from UniProt P89475 21-416; P06764 21-256) (receptor)” showed a Kd of 255 nM, a Response (nm) of 0.669 nm, a koff of 0.00358 s⁻¹ and a kon of 14000 M⁻¹ s⁻¹.

Regarding “HSV2-gE_A248K F322P_gI (from UniProt P89475 21-416; P06764 21-256) (receptor)”, the Kd came to 498 nM, the Response (nm) was determined as 0.427 nm, the koff came out at 0.00461 s⁻¹ and the kon was determined as 9250 M⁻¹ s⁻¹.

“HSV2-gE_R320L_gI (from UniProt P89475 21-416; P06764 21-256) (receptor)” had a Kd of 291 nM, a Response (nm) of 0.785 nm, a koff of 0.00389 s⁻¹ and a kon of 13400 M⁻¹ s⁻¹.

On to “HSV2-gE_P319L_gI (from UniProt P89475 21-416; P06764 21-256) (receptor)”, for which the Kd came out at 1390 nM, the Response (nm) amounted to 0.328 nm, the koff stood at 0.00444 s⁻¹ and the on-rate constant (kon) was found to be 3190 M⁻¹ s⁻¹.

“HSV2-gE_R314K_gI (from UniProt P89475 21-416; P06764 21-256) (receptor)” yielded a Kd of 583 nM, a Response (nm) of 0.461 nm, a koff of 0.00549 s⁻¹ and an on-rate constant (kon) of 9420 M⁻¹ s⁻¹.

“HSV2-gE_H245T_gI (from UniProt P89475 21-416; P06764 21-256) (receptor)” showed a Kd of 813 nM, a Response (nm) of 0.493 nm, a dissociation rate constant (koff) of 0.00605 s⁻¹ and a kon of 7450 M⁻¹ s⁻¹.

In turn, “HSV2-gE_R314T_gI (from UniProt P89475 21-416; P06764 21-256) (receptor)” had a Kd of 575 nM, a Response (nm) of 0.417 nm, a koff of 0.0049 s⁻¹ and a kon of 8530 M⁻¹ s⁻¹.

“HSV2-gE_P317I_gI (from UniProt P89475 21-416; P06764 21-256) (receptor)” displayed a Kd of 1000 nM, a Response (nm) of 0.243 nm, a koff of 0.00382 s⁻¹ and a kon of 3810 M⁻¹ s⁻¹.

Turning to “HSV2-gE_A248T F322P_gI (from UniProt P89475 21-416; P06764 21-256) (receptor)”, the Kd was 1490 nM, the Response (nm) was determined as 0.2 nm, the dissociation rate constant (koff) stood at 0.00426 s⁻¹ and the kon turned out to be 2870 M⁻¹ s⁻¹.

Regarding “HSV2-gE_V340Q_gI (from UniProt P89475 21-416; P06764 21-256) (receptor)”, the Kd came to 239 nM, the Response (nm) amounted to 0.32 nm, the koff came out at 0.00218 s⁻¹ and the association rate constant (kon) came out at 9090 M⁻¹ s⁻¹.

Substance “HSV2-gE_H245K_gI (from UniProt P89475 21-416; P06764 21-256) (receptor)” showed a Kd of 686 nM, a Response (nm) of 0.562 nm, a koff of 0.00614 s⁻¹ and an on-rate constant (kon) of 8960 M⁻¹ s⁻¹.

The substance “HSV2-gE_P317K_gI (from UniProt P89475 21-416; P06764 21-256) (receptor)” had a Kd of 374 nM, a Response (nm) of 0.13 nm, an off-rate (koff) of 0.00136 s⁻¹ and an association rate constant (kon) of 3640 M⁻¹ s⁻¹.

The substance “HSV2-gE_R314E_gI (from UniProt P89475 21-416; P06764 21-256) (receptor)” gave a Kd of 1300 nM, a Response (nm) of 0.306 nm, a koff of 0.0058 s⁻¹ and a kon of 4470 M⁻¹ s⁻¹.

The substance “HSV2-gE_A248G_gI (from UniProt P89475 21-416; P06764 21-256) (receptor)” displayed a Kd of 560 nM, a Response (nm) of 0.506 nm, a koff of 0.00551 s⁻¹ and a kon of 9840 M⁻¹ s⁻¹.

The substance “HSV2-gE_R320S_gI (from UniProt P89475 21-416; P06764 21-256) (receptor)” had a Kd of 1050 nM, a Response (nm) of 0.343 nm, an off-rate (koff) of 0.00547 s⁻¹ and a kon of 5190 M⁻¹ s⁻¹.

Turning to “HSV2-gE_A246W P317S_gI (from UniProt P89475 21-416; P06764 21-256) (receptor)”, the dissociation constant (Kd) was below 0.001 nM, the Response (nm) amounted to 0.121 nm, the koff was below 1e-07 s⁻¹ and the kon amounted to 3600 M⁻¹ s⁻¹.

Broadly, the Kd is the concentration at which binding is half-saturated. High values mean lower affinity, low ones higher affinity. As a reminder, the koff is the first-order rate constant of dissociation. What is called kon is the rate constant with which the complex forms. Low readings indicate slow association, high ones fast association.
